# Patent US20070275900
# T1: H-Asp-Pro-NAP-TSAO
# T1 chain: DP
# T2: Z-Val-Pro-Val-Pro-NAP-TSAO
# T2 chain: VPVP
# T3: H-Val-Pro-Doxorubicin
# T3 chain: VP
# T4: H-Val-Ala-Val-Pro-NAP-TSAO
# T4 chain: VAVP
# T5: H-Gly-3.4Hypro-NAP-TSAO
# T5 chain: GP
# T6: H-Gly-Pro-NAP-TSAO
# T6 chain: GP
# T7: H-Tyr-Pro-NAP-TSAO
# T7 chain: YP
# T8: H-Val-Pro-Val-Pro-NAP-TSAO
# T8 chain: VPVP
# T9: H-Val-Pro-Val-NAP-TSAO
# T9 chain: VPV
# T10: NH2-Val-HyPro(Bzl)-NAP-TSAO
# T10 chain: VP
# T11: H-Lys-Pro-NAP-TSAO
# T11 chain: KP
# T12: H-Val-Ala-NAP-TSAO
# T12 chain: VA
# T13: H-Val-Pro-6-Aminoquinoline
# T13 chain: VP
# T14: H-Val-Leu-NAP-TSAO
# T14 chain: VL
# T15: Me-NH-Val-Pro-Val-NHP-TSAO
# T15 chain: VPV
# T16: Fmoc-Val-Pro-Doxorubicin
# T16 chain: VP
# T17: H-Val-Gly-NAP-TSAO
# T17 chain: VG
# T18: H-Val-4HyPro-NAP-TSAO
# T18 chain: VP
# T19: H-Lys-Pro-Asp-Pro-NAP-TSAO
# T19 chain: KPDP
# T20: H-Val-Pro-Val-NHP-TSAO
# T20 chain: VPV
# T21: H-Val-Phe-NAP-TSAO
# T21 chain: VF
# T22: Val-Pro-PI 1
# T22 chain: VP
# T23: H-Val-D-Pro-NAP-TSAO
# T23 chain: VP
# T24: H-Val-Pro-NAP-TSAO
# T24 chain: VP
# Columns and labels:
# H-Asp-Pro-NAP-TSAO = molecular target: T1, H-Asp-Pro-NAP-TSAO
# [1] = molecular target: T2, Z-Val-Pro-Val-Pro-NAP-TSAO
# H-Val-Pro-Doxorubicin = molecular target: T3, H-Val-Pro-Doxorubicin
# [2] = molecular target: T4, H-Val-Ala-Val-Pro-NAP-TSAO
# H-Gly-3.4Hypro-NAP-TSAO = molecular target: T5, H-Gly-3.4Hypro-NAP-TSAO
# H-Gly-Pro-NAP-TSAO = molecular target: T6, H-Gly-Pro-NAP-TSAO
# H-Tyr-Pro-NAP-TSAO = molecular target: T7, H-Tyr-Pro-NAP-TSAO
# [3] = molecular target: T8, H-Val-Pro-Val-Pro-NAP-TSAO
# H-Val-Pro-Val-NAP-TSAO = molecular target: T9, H-Val-Pro-Val-NAP-TSAO
# [4] = molecular target: T10, NH2-Val-HyPro(Bzl)-NAP-TSAO
# H-Lys-Pro-NAP-TSAO = molecular target: T11, H-Lys-Pro-NAP-TSAO
# H-Val-Ala-NAP-TSAO = molecular target: T12, H-Val-Ala-NAP-TSAO
# [5] = molecular target: T13, H-Val-Pro-6-Aminoquinoline
# H-Val-Leu-NAP-TSAO = molecular target: T14, H-Val-Leu-NAP-TSAO
# [6] = molecular target: T15, Me-NH-Val-Pro-Val-NHP-TSAO
# Fmoc-Val-Pro-Doxorubicin = molecular target: T16, Fmoc-Val-Pro-Doxorubicin
# H-Val-Gly-NAP-TSAO = molecular target: T17, H-Val-Gly-NAP-TSAO
# H-Val-4HyPro-NAP-TSAO = molecular target: T18, H-Val-4HyPro-NAP-TSAO
# [7] = molecular target: T19, H-Lys-Pro-Asp-Pro-NAP-TSAO
# H-Val-Pro-Val-NHP-TSAO = molecular target: T20, H-Val-Pro-Val-NHP-TSAO
# H-Val-Phe-NAP-TSAO = molecular target: T21, H-Val-Phe-NAP-TSAO
# Val-Pro-PI 1 = molecular target: T22, Val-Pro-PI 1
# H-Val-D-Pro-NAP-TSAO = molecular target: T23, H-Val-D-Pro-NAP-TSAO
# H-Val-Pro-NAP-TSAO = molecular target: T24, H-Val-Pro-NAP-TSAO
protein,measurement,setting,value
"purified CD26 (dipeptidyl-peptidase IV, EC 3.4.14.5) (protein) MKTPWKVLLGLLGAAALVTIITVPVVLLNKGTDDATADSRKTYTLTDYLKNTYRLKLYSLRWISDHEYLYKQENNILVFNAEYGNSSVFLENSTFDEFGHSINDYSISPDGQFILLEYNYVKQWRHSYTASYDIYDLNKRQLITEERIPNNTQWVTWSPVGHKLAYVWNNDIYVKIEPNLPSYRITWTGKEDIIYNGITDWVYEEEVFSAYSALWWSPNGTFLAYAQFNDTEVPLIEYSFYSDESLQYPKTVRVPYPKAGAVNPTVKFFVVNTDSLSSVTNATSIQITAPASMLIGDHYLCDVTWATQERISLQWLRRIQNYSVMDICDYDESSGRWNCLVARQHIEMSTTGWVGRFRPSEPHFTLDGNSFYKIISNEEGYRHICYFQIDKKDCTFITKGTWEVIGIEALTSDYLYYISNEYKGMPGGRNLYKIQLSDYTKVTCLSCELNPERCQYYSVSFSKEAKYYQLRCSGPGLPLYTLHSSVNDKGLRVLEDNSALDKMLQNVQMPSKKLDFIILNETKFWYQMILPPHFDKSKKYPLLLDVYAGPCSQKADTVFRLNWATYLASTENIIVASFDGRGSGYQGDKIMHAINRRLGTFEVEDQIEAARQFSKMGFVDNKRIAIWGWSYGGYVTSMVLGSGSGVFKCGIAVAPVSRWEYYDSVYTERYMGLPTPEDNLDHYRNSTVMSRAENFKQVEYLLIHGTADDNVHFQQSAQISKALVDVGVDFQAMWYTDEDHGIASSTAHQHIYTHMSHFIKQCFSLP","Conversion %, 4 h",H-Asp-Pro-NAP-TSAO,7.9%
same,"Conversion %, 24 h",H-Asp-Pro-NAP-TSAO,30%
same,"% conversion, 1 h",[1],0%
same,"% conversion, 4 h",[1],0%
same,"% conversion, 24 h",[1],0%
same,"% conversion, 1 h",H-Val-Pro-Doxorubicin,78%
same,"% conversion, 4 h",H-Val-Pro-Doxorubicin,95%
same,"% conversion, 24 h",H-Val-Pro-Doxorubicin,97%
same,"% conversion, 1 h",[2],12%
same,"% conversion, 4 h",[2],54%
same,"% conversion, 24 h",[2],70%
same,"Conversion %, 4 h",H-Gly-3.4Hypro-NAP-TSAO,0%
same,"Conversion %, 24 h",H-Gly-3.4Hypro-NAP-TSAO,0%
same,"Conversion %, 1 h",H-Gly-Pro-NAP-TSAO,5%
same,"Conversion %, 4 h",H-Gly-Pro-NAP-TSAO,20%
same,"Conversion %, 24 h",H-Gly-Pro-NAP-TSAO,58%
same,"Conversion %, 1 h",H-Tyr-Pro-NAP-TSAO,43%
same,"Conversion %, 4 h",H-Tyr-Pro-NAP-TSAO,56%
same,"Conversion %, 24 h",H-Tyr-Pro-NAP-TSAO,79%
same,"% conversion, 1 h",[3],43%
same,"% conversion, 4 h",[3],86%
same,"% conversion, 24 h",[3],88%
same,"Conversion %, 4 h",H-Val-Pro-Val-NAP-TSAO,51%
same,"Conversion %, 24 h",H-Val-Pro-Val-NAP-TSAO,70%
same,"Conversion %, 4 h",[4],0%
same,"Conversion %, 24 h",[4],0%
same,"Conversion %, 4 h",H-Lys-Pro-NAP-TSAO,85%
same,"Conversion %, 24 h",H-Lys-Pro-NAP-TSAO,99%
same,"Conversion %, 1 h",H-Val-Ala-NAP-TSAO,0%
same,"Conversion %, 4 h",H-Val-Ala-NAP-TSAO,6.5%
same,"Conversion %, 24 h",H-Val-Ala-NAP-TSAO,35%
same,"% conversion, 1 h",[5],99%
same,"% conversion, 4 h",[5],100%
same,"% conversion, 24 h",[5],100%
same,"Conversion %, 1 h",H-Val-Leu-NAP-TSAO,0%
same,"Conversion %, 4 h",H-Val-Leu-NAP-TSAO,0%
same,"Conversion %, 24 h",H-Val-Leu-NAP-TSAO,0%
same,"Conversion %, 1 h",[6],0%
same,"Conversion %, 4 h",[6],0%
same,"Conversion %, 24 h",[6],0%
same,"% conversion, 1 h",Fmoc-Val-Pro-Doxorubicin,0%
same,"% conversion, 4 h",Fmoc-Val-Pro-Doxorubicin,0%
same,"% conversion, 24 h",Fmoc-Val-Pro-Doxorubicin,0%
same,"Conversion %, 1 h",H-Val-Gly-NAP-TSAO,0%
same,"Conversion %, 4 h",H-Val-Gly-NAP-TSAO,0%
same,"Conversion %, 24 h",H-Val-Gly-NAP-TSAO,0%
same,"Conversion %, 1 h",H-Val-4HyPro-NAP-TSAO,4.1%
same,"Conversion %, 4 h",H-Val-4HyPro-NAP-TSAO,18%
same,"Conversion %, 24 h",H-Val-4HyPro-NAP-TSAO,53%
same,"% conversion, 1 h, to the dipeptide intermediate (a)",[7],88%
same,"% conversion, 1 h, to the parent compound (b)",[7],2.1%
same,"% conversion, 4 h, to the dipeptide intermediate (a)",[7],86%
same,"% conversion, 4 h, to the parent compound (b)",[7],6%
same,"% conversion, 24 h, to the dipeptide intermediate (a)",[7],74%
same,"% conversion, 24 h, to the parent compound (b)",[7],26%
same,"Conversion %, 1 h",H-Val-Pro-Val-NHP-TSAO,33%
same,"Conversion %, 4 h",H-Val-Pro-Val-NHP-TSAO,60%
same,"Conversion %, 1 h",H-Val-Phe-NAP-TSAO,0%
same,"Conversion %, 4 h",H-Val-Phe-NAP-TSAO,0%
same,"Conversion %, 24 h",H-Val-Phe-NAP-TSAO,0%
same,conversion of PI-2 to PI-1 by purified CD26,Val-Pro-PI 1,"Within 60 min, PI-2 was completely converted to PI-1 by purified CD26"
same,"Conversion %, 1 h",H-Val-D-Pro-NAP-TSAO,0%
same,"Conversion %, 4 h",H-Val-D-Pro-NAP-TSAO,1%
same,"Conversion %, 24 h",H-Val-D-Pro-NAP-TSAO,2%
same,"Conversion %, 1 h",H-Val-Pro-NAP-TSAO,37%
same,"Conversion %, 4 h",H-Val-Pro-NAP-TSAO,62%
same,"Conversion %, 24 h",H-Val-Pro-NAP-TSAO,61%
same,"conversion of 50 µM CAM-405 to CAM-212 by 5.7 mUnits purified CD26, 30 min (HPLC)",H-Val-Pro-NAP-TSAO,fifty percent of the TSAO dipeptide derivative was converted to CAM-212 within 30 min
same,"conversion of 50 µM CAM-405 to CAM-212 by 5.7 mUnits purified CD26, first 10 min (HPLC)",H-Val-Pro-NAP-TSAO,"Within the first 10 min of the reaction, at least 20% of CAM-405 had been converted to CAM-212"
same,"hydrolysis of 50 µM CAM-405 by 5.7 mUnits purified CD26, 60 min (HPLC)",H-Val-Pro-NAP-TSAO,˜67% of CAM-405 was hydrolysed after 60 min
